Measured values: the Immune Epitope Database (IEDB)
One block for each sequence: values may come before it.

What was measured:
[1] = biological target: HLA-B*58:01; experiment: IEDB peptide-MHC binding, purified MHC/competitive/fluorescence; filed as Kd, often an IC50 or EC50 that approximates it; ≥ and ≤ were set here for values at or beyond the usual limits of such assays
[2] = biological target: HLA-B*27:05; experiment: as above
[3] = biological target: HLA-B*15:42; experiment: as above
[4] = biological target: HLA-A*31:01; experiment: as above
[5] = biological target: HLA-B*45:06; experiment: as above
[6] = biological target: HLA-A*03:19; experiment: as above
[7] = biological target: HLA-B*27:20; experiment: as above
[8] = biological target: HLA-B*39:01; experiment: as above
[9] = biological target: HLA-B*83:01; experiment: as above
[10] = biological target: HLA-A*02:01; experiment: as above
[11] = biological target: HLA-A*32:07; experiment: as above
[12] = biological target: HLA-C*14:02; experiment: IEDB peptide-MHC binding, purified MHC/direct/fluorescence; filed as Kd, often an IC50 or EC50 that approximates it; ≥ and ≤ were set here for values at or beyond the usual limits of such assays
[13] = biological target: HLA-C*15:02; experiment: as above
[14] = biological target: HLA-C*06:02; experiment: as above
[15] = biological target: HLA-C*05:01; experiment: as above
[16] = biological target: HLA-C*04:01; experiment: as above
[17] = biological target: HLA-A*80:01; experiment: as above
[18] = biological target: HLA-A*01:01; experiment: as above
[19] = biological target: HLA-A*02:50; experiment: IEDB peptide-MHC binding, purified MHC/competitive/fluorescence; filed as Kd, often an IC50 or EC50 that approximates it; ≥ and ≤ were set here for values at or beyond the usual limits of such assays; details: source organism: Giardia lamblia ATCC 50803
[20] = biological target: HLA-A*02:12; experiment: IEDB peptide-MHC binding, purified MHC/direct/fluorescence; filed as Kd, often an IC50 or EC50 that approximates it; ≥ and ≤ were set here for values at or beyond the usual limits of such assays; details: source organism: Giardia lamblia ATCC 50803
[21] = biological target: HLA-A*02:16; experiment: as above; details: source organism: Giardia lamblia ATCC 50803
[22] = biological target: HLA-A*69:01; experiment: as above; details: source organism: Giardia lamblia ATCC 50803
[23] = biological target: HLA-A*02:01; experiment: as above; details: source organism: Giardia lamblia ATCC 50803
[24] = biological target: HLA-A*32:15; experiment: IEDB peptide-MHC binding, purified MHC/competitive/fluorescence; filed as Kd, often an IC50 or EC50 that approximates it; ≥ and ≤ were set here for values at or beyond the usual limits of such assays
[25] = biological target: HLA-A*68:23; experiment: as above
[26] = biological target: HLA-C*06:02; experiment: as above
[27] = biological target: HLA-C*14:02; experiment: as above
[28] = biological target: HLA-B*40:13; experiment: as above
[29] = biological target: HLA-C*07:02; experiment: IEDB peptide-MHC binding, purified MHC/direct/fluorescence; filed as Kd, often an IC50 or EC50 that approximates it; ≥ and ≤ were set here for values at or beyond the usual limits of such assays
[30] = biological target: HLA-C*08:02; experiment: as above; details: source organism: Yersinia pestis CO92
[31] = biological target: HLA-B*35:01; experiment: IEDB peptide-MHC binding, purified MHC/competitive/fluorescence; filed as Kd, often an IC50 or EC50 that approximates it; ≥ and ≤ were set here for values at or beyond the usual limits of such assays; details: source organism: Yersinia pestis Nepal516
[32] = biological target: HLA-A*26:01; experiment: as above; details: source organism: Yersinia pestis Nepal516
[33] = biological target: HLA-A*02:06; experiment: as above; details: source organism: Brucella suis 1330
[34] = biological target: HLA-B*46:01; experiment: as above; details: source organism: Vibrio cholerae MAK 757
[35] = biological target: HLA-C*03:03; experiment: IEDB peptide-MHC binding, purified MHC/direct/fluorescence; filed as Kd, often an IC50 or EC50 that approximates it; ≥ and ≤ were set here for values at or beyond the usual limits of such assays
[36] = biological target: HLA-C*12:03; experiment: as above
[37] = biological target: HLA-A*24:03; experiment: as above; details: source organism: Bacillus anthracis
[38] = source organism: Yersinia pestis Nepal516
[39] = source organism: Camelpox virus M-96
[40] = source organism: Yersinia pestis CO92
[41] = source organism: Escherichia coli O157:H7 str. EDL933
[42] = source organism: Vaccinia virus
[43] = source organism: Brucella suis 1330
[44] = source organism: Vibrio cholerae MAK 757
[45] = source organism: Mycobacterium tuberculosis F11
[46] = source organism: Mammarenavirus lassaense

Sequence: VSLGAISFW
Kd ([1]; source organism: Influenza A virus (A/Leningrad/1954/1(H1N1))): ≤ 1 nM

Kd ([2]; source organism: Escherichia coli 536): ≥ 20000 nM
Sequence: GKVERMVQY

Sequence: RAMRMVYYL
Kd [3, 38]: ≥ 5000 nM
Kd [4, 38]: 4 nM
Kd [2, 38]: 157 nM
Kd [5, 38]: ≥ 5000 nM
Kd [6, 38]: 206 nM
Kd [7, 38]: 14 nM
Kd [8, 38]: 421 nM
Kd [9, 38]: ≥ 5000 nM
Kd [10, 38]: 0.8 nM
Kd [11, 38]: 77.6 nM
Kd [12, 38]: 960 nM
Kd [13, 38]: 34 nM
Kd [14, 38]: 798 nM
Kd [15, 38]: 124 nM

Sequence: SYCNGVREL
Kd ([16]; source organism: SARS-CoV1): ≥ 20000 nM
Kd ([14]; source organism: SARS-CoV1): 133 nM

Sequence: MTDLSKKGY
Kd [17, 39]: ≥ 20000 nM
Kd [18, 39]: 2.8 nM

Sequence: GMNPYHLAA
Kd [19]: 12.7 nM
Kd [20]: 296 nM
Kd [21]: 65 nM
Kd [22]: ≥ 20000 nM
Kd [23]: 4380 nM

Kd ([3]; source organism: Mus musculus): ≥ 5000 nM
Kd ([24]; source organism: Mus musculus): ≥ 20000 nM
Kd ([25]; source organism: Mus musculus): 23.1 nM
Kd ([5]; source organism: Mus musculus): ≥ 5000 nM
Kd ([6]; source organism: Mus musculus): 3230 nM
Kd ([9]; source organism: Mus musculus): ≥ 5000 nM
Kd ([26]; source organism: Mus musculus): 1350 nM
Sequence: GVPKTHLEL

Sequence: YSFSRAYTL
Kd [3, 40]: ≥ 5000 nM
Kd [27, 40]: 125 nM
Kd [24, 40]: 23.7 nM
Kd [25, 40]: 9.3 nM
Kd [5, 40]: ≥ 5000 nM
Kd [7, 40]: 31.5 nM
Kd [28, 40]: 6.3 nM
Kd [8, 40]: 3.9 nM
Kd [9, 40]: ≥ 5000 nM
Kd [26, 40]: 47.8 nM
Kd [11, 40]: 164 nM
Kd [29, 40]: 347 nM
Kd [30]: ≥ 20000 nM
Kd [15, 40]: ≥ 20000 nM

Kd [3, 41]: ≥ 5000 nM
Kd [4, 41]: 2.1 nM
Kd [1, 41]: 16.8 nM
Kd [5, 41]: ≥ 5000 nM
Kd [6, 41]: 886 nM
Kd [7, 41]: 34 nM
Kd [28, 41]: 3.2 nM
Kd [8, 41]: 2190 nM
Kd [9, 41]: ≥ 5000 nM
Kd [26, 41]: 798 nM
Kd [10, 41]: 2 nM
Kd [11, 41]: 1.1 nM
Kd [12, 41]: 2340 nM
Kd [13, 41]: 2080 nM
Kd [29, 41]: 859 nM
Sequence: RMMGVKYLM

Sequence: MVLSGTLAY
Kd [3, 38]: ≥ 5000 nM
Kd [27, 38]: 123 nM
Kd [31]: 1.2 nM
Kd [5, 38]: ≥ 5000 nM
Kd [32]: 506 nM
Kd [9, 38]: ≥ 5000 nM

Sequence: FVDVIIIKV
Kd [16, 42]: ≥ 20000 nM
Kd [15, 42]: ≥ 20000 nM

Sequence: RQNAPFEPI
Kd [3, 43]: ≥ 5000 nM
Kd [5, 43]: ≥ 5000 nM
Kd [7, 43]: 1.1 nM
Kd [28, 43]: 53.6 nM
Kd [9, 43]: ≥ 5000 nM
Kd [10, 43]: 83.4 nM
Kd [11, 43]: 11.9 nM
Kd [33]: 1.2 nM

Sequence: IAAPNMIAV
Kd [34]: 578 nM
Kd [35, 44]: ≤ 1 nM
Kd [36, 44]: 2 nM
Kd [15, 44]: 2170 nM

Sequence: RLDPRLAPV
Kd ([35]; source organism: Mycobacterium tuberculosis variant bovis BCG str. Pasteur 1173P2): ≥ 20000 nM

Sequence: NRDGDSYYY
Kd ([17]; source organism: Yellow fever virus): 478 nM

Sequence: FVAATGRPL
Kd [3, 45]: ≥ 5000 nM
Kd [27, 45]: 30.2 nM
Kd [5, 45]: ≥ 5000 nM
Kd [35, 45]: ≤ 1 nM
Kd [36, 45]: 95 nM

Sequence: AYPKWKFFL
Kd [37]: 1.7 nM
Kd ([16]; source organism: Bacillus anthracis str. CDC 684): ≥ 20000 nM

Sequence: ALTDLGLIY
Kd [17, 46]: 1.8 nM
Kd [18, 46]: 34.7 nM
